Here are results for four molecules from publication PMC10501992, “How Pol α-primase is targeted to replisomes to prime eukaryotic DNA replication” (Molecular Cell, 2023).

What all share (conditions): both partners purified
One assay concerns the target T1, Mrc1 (budding yeast) (S. cerevisiae, UniProt P25588 1-1096).
T1 construct: Mrc1, S. cerevisiae; several small sections modelled (S339-K323 as printed, D468-Q483, N842-E858); source: S. cerevisiae strain yJY32, expressed and purified as described previously
T1 sequence: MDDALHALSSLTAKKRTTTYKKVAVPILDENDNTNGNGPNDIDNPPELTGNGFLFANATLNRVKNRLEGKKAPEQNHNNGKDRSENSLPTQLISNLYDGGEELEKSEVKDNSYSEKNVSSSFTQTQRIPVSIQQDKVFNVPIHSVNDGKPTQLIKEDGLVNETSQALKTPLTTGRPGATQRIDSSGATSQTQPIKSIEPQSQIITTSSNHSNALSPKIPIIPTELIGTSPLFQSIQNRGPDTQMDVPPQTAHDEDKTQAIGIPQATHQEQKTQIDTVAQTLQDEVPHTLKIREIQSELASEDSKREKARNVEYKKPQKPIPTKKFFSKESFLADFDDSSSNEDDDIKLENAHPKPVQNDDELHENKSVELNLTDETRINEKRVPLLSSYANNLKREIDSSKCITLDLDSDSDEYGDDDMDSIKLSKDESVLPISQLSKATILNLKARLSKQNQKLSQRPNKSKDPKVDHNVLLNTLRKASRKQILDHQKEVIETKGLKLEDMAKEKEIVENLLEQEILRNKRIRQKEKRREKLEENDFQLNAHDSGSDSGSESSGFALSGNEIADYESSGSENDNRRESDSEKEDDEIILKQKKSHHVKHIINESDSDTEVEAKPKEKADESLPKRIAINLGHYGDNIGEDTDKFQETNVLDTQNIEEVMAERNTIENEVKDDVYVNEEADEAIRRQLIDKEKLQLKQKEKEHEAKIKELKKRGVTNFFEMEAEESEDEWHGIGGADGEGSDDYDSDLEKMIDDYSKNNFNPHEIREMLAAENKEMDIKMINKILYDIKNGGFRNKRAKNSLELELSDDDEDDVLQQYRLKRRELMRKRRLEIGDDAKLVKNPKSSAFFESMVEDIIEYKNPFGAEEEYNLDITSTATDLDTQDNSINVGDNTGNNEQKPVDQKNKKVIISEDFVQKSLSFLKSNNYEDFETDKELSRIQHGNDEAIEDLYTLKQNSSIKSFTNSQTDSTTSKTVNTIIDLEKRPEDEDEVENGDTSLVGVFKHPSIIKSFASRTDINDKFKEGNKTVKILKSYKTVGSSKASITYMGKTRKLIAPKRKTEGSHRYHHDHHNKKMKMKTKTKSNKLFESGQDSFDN
As to the kind of experiment: cryo-EM structure; budding yeast replisome: 150 nM CMG on fork DNA (39 nt 3′ flap, 60 nt 5′ flap) with 1.5-fold molar excess of Tof1-Csm3, Mrc1 and Pol α-primase; 25 mM HEPES-NaOH pH 7.6, 150 mM NaOAc, 0.5 mM TCEP, 500 μM AMP-PNP, 10 mM Mg(OAc)2, on ice; 10-30% glycerol gradient with glutaraldehyde and BS3 cross-linkers.

For assay [1], the target named is T2, PRIM2 (human primase accessory subunit) (human, UniProt P49643 1-509).
T2 construct: PRIM2, human; modelled residues 1-5 (N terminus) and 17-252 (NTD); stood in the assay as a subunit of m18; also called PRIM2NTD; PRIM2_(Nterm)
T2 sequence: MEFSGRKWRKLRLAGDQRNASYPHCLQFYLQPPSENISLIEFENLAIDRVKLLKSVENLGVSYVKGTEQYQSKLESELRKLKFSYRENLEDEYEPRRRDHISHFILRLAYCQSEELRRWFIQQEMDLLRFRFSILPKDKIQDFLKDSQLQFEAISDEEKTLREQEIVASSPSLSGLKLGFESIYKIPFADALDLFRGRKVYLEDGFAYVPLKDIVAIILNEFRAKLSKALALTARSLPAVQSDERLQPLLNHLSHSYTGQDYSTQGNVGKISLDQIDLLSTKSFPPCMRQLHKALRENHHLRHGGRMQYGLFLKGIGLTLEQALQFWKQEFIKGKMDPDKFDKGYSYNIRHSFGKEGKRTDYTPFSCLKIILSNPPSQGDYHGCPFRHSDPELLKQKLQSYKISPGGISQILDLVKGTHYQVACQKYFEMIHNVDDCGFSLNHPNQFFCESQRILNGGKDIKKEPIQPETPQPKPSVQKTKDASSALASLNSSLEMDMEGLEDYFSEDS
Description: cryo-EM structure; human replisome: 150 nM CMG on fork DNA (60 nt or 15 nt 5′ flap) with 1.5-fold molar excess of AND-1, TIMELESS-TIPIN, CLASPIN and Pol α-primase; 25 mM HEPES-NaOH pH 7.6, 150 mM NaOAc, 0.5 mM TCEP, 500 μM AMP-PNP, 10 mM Mg(OAc)2, on ice; 10-30% glycerol gradient with glutaraldehyde and BS3 cross-linkers.

Assay [2] deals with T3, budding yeast CMG (Cdc45-Mcm2-7-GINS) replicative helicase (S. cerevisiae, UniProt Q08032 1-650; P29469 1-868; P24279 1-971; P30665 1-933; P29496 1-775; P53091 …).
T3 construct: Cdc45, S. cerevisiae; Mcm2, S. cerevisiae; Mcm3, S. cerevisiae; Mcm4, S. cerevisiae (named only within Mcm2-7); Mcm5, S. cerevisiae; Mcm6, S. cerevisiae (named only within Mcm2-7); Mcm7, S. cerevisiae (named only within Mcm2-7); Psf1, subunit of GINS, S. cerevisiae; Psf2, subunit of GINS, S. cerevisiae; Sld5, subunit of GINS, S. cerevisiae; source: S. cerevisiae strain yJY197, expressed and …
As to the kind of experiment: cryo-EM structure; budding yeast replisome: 150 nM CMG on fork DNA (39 nt 3′ flap, 60 nt 5′ flap) with 1.5-fold molar excess of Tof1-Csm3, Mrc1 and Pol α-primase; 25 mM HEPES-NaOH pH 7.6, 150 mM NaOAc, 0.5 mM TCEP, 500 μM AMP-PNP, 10 mM Mg(OAc)2, on ice; 10-30% glycerol gradient with glutaraldehyde and BS3 cross-linkers.

B1: Mcm2 (budding yeast) (natural protein, S. cerevisiae)
chain: MSDNRRRRREEDDSDSENELPPSSPQQHFRGGMNPVSSPIGSPDMINPEGDDNEVDDVPDIDEVEEQMNEVDLMDDNMYEDYAADHNRDRYDPDQVDDREQQELSLSERRRIDAQLNERDRLLRNVAYIDDEDEEQEGAAQLDEMGLPVQRRRRRRQYEDLENSDDDLLSDMDIDPLREELTLESLSNVKANSYSEWITQPNVSRTIARELKSFLLEYTDETGRSVYGARIRTLGEMNSESLEVNYRHLAESKAILALFLAKCPEEMLKIFDLVAMEATELHYPDYARIHSEIHVRISDFPTIYSLRELRESNLSSLVRVTGVVTRRTGVFPQLKYVKFNCLKCGSILGPFFQDSNEEIRISFCTNCKSKGPFRVNGEKTVYRNYQRVTLQEAPGTVPPGRLPRHREVILLADLVDVSKPGEEVEVTGIYKNNYDGNLNAKNGFPVFATIIEANSIKRREGNTANEGEEGLDVFSWTEEEEREFRKISRDRGIIDKIISSMAPSIYGHRDIKTAVACSLFGGVPKNVNGKHSIRGDINVLLLGDPGTAKSQILKYVEKTAHRAVFATGQGASAVGLTASVRKDPITKEWTLEGGALVLADKGVCLIDEFDKMNDQDRTSIHEAMEQQSISISKAGIVTTLQARCSIIAAANPNGGRYNSTLPLAQNVSLTEPILSRFDILCVVRDLVDEEADERLATFVVDSHVRSHPENDEDREGEELKNNGESAIEQGEDEINEQLNARQRRLQRQRKKEEEISPIPQELLMKYIHYARTKIYPKLHQMDMDKVSRVYADLRRESISTGSFPITVRHLESILRIAESFAKMRLSEFVSSYDLDRAIKVVVDSFVDAQKVSVRRQLRRSFAIYTLGH
notes: Mcm2, S. cerevisiae; stood in the assay as a subunit of m2; source: subunit of CMG from S. cerevisiae strain yJY197, purified as described previously
Regarding B1, in the assay with Mrc1 (budding yeast), the binding result is “binds”.

B2: Cdc45 (budding yeast) (natural protein, S. cerevisiae, UniProt Q08032 1-650, looked up)
chain: MYYGISQFSEAYNKILRNSSSHSSCQLVIFVSCLNIDALCATKMLSLLFKKQLVQSQIVPIFGYSELRRHYSQLDDNINSLLLVGFGGVIDLEAFLEIDPQEYVIDTDEKSGEQSFRRDIYVLDAHRPWNLDNIFGSQIIQCFDDGTVDDTLGEQKEAYYKLLELDEESGDDELSGDENDNNGGDDEATDADEVTDEDEEDEDETISNKRGNSSIGPNDLSKRKQRKKQIHEYEGVLEEYYSQGTTVVNSISAQIYSLLSAIGETNLSNLWLNILGTTSLDIAYAQVYNRLYPLLQDEVKRLTPSSRNSVKTPDTLTLNIQPDYYLFLLRHSSLYDSFYYSNYVNAKLSLWNENGKKRLHKMFARMGIPLSTAQETWLYMDHSIKRELGIIFDKNLDRYGLQDIIRDGFVRTLGYRGSISASEFVEALTALLEVGNSTDKDSVKINNDNNDDTDGEEEEDNSAQKLTNLRKRWVSNFWLSWDALDDRKVELLNRGIQLAQDLQRAIFNTGVAILEKKLIKHLRIYRLCVLQDGPDLDLYRNPLTLLRLGNWLIECCAESEDKQLLPMVLASIDENTDTYLVAGLTPRYPRGLDTIHTKKPILNNFSMAFQQITAETDAKVRIDNFESSIIEIRREDLSPFLEKLTLSGLL
notes: Cdc45, S. cerevisiae; stood in the assay as a subunit of m2; source: subunit of CMG from S. cerevisiae strain yJY197, purified as described previously
As to B2, the binding result with Mrc1 (budding yeast) is reported as “binds”.

B3: PSF2 (human GINS subunit) (natural protein)
chain: MDAAEVEFLAEKELVTIIPNFSLDKIYLIGGDLGPFNPGLPVEVPLWLAINLKQRQKCRLLPPEWMDVEKLEKMRDHERKEETFTPMPSPYYMELTKLLLNHASDNIPKADEIRTLVKDMWDTRIAKLRVSADSFVRQQEAHAKLDNLTLMEINTSGTFLTQALNHMYKLRTNLQPLESTQSQDF
notes: PSF2, subunit of GINS, human; stood in the assay as a subunit of m19
B3: the binding result in assay [1] is “binds”.

B4: Tof1-Csm3 (budding yeast) (complex, S. cerevisiae)
chain 1: MSADLQQGTTNAADFSLTVLRARIALLATAIGGPDYTSQIDPPPYKLGDDCLACLKDLKRWFKLVDDQQKRWDVAMAVAEYRILTDDLLPILIDWENKCSLAAKLAKNNPDHEEFRNKAYYDKIALNCLQLLVLMTWPLIVTEQSSSNQITLYGELKKHQLVYKKTILSMESGKVLRAAIRLALDVIKIDRLSRTPRDNMVLKLVLNFFRNVIAIEPGEFTINTKKSMPKKGITSIDTLPPNVSMDDISLNTVISSFHKNKVFGFLLTLTSSLSKEFDQDFINIPLLEIMFYFTKDVNQELLFPRQFETGTHSKVVNKNESSSANNIVTSAGFELSKLLQKEHQMRKNVIKHTSARHSRFGGLLSIQTPDKTRLTVSGSQALVDEKIALQKLDDSKKWNKRIIKKHQSVAAEGLPNSLLNSQTGKAIFFTESNGKHFKEFINNFIDSGFNILLHSVTNYFTTEQDRMVTLEQVEYLLFFAWFVKYQLLRSKIDNSADIKQVSEALKEVTFILVSSLLRSAYDLKNWTVTHAGMIAFNELLNLVSRTKAAQEEDSTDIEFIVSRLFSDERIQLLSNLPKIGSKYSLQFMKSCIELTHSVLKVLEQYSDDKTLVIEGKSRRQKKFNISEGDITKLIEEENVDRDEALDILTSSLRSIEVNFQKVQANYMTEPVIETYINFLERFRELEDDSIKKVFSFFHRVFVQAKEQALLFRFDLIILLREMLSPDGLDRMSRSRKYVSQFSDYFLARLKKRLKKSPAWFVGLLFPPLHNSEVGFYQRYGEYNVLNNESMYAAPASQFKPIPDEEALPPSILLDMKYGVLVSTLLDDGKTELLDQLLKHITHTLDIFKSWLTVNVNAGKETVNPPNEYFTLTGVLNNDPIFKDKDYRALLLLIGYSIPRKINEPCFLPGTVEVSDLTVSCELVKKYLSTPFETPNGLPSSSYLLRVRSEKDSFSHNEQDGWEGDDDYDYNDPYIVPDDQILSKSDAAYFKDLDNNASDKLKGTKFSKGIARSKKKDKRKRRKGEAKTNLPMFGDQDDERPQTVRERHGVFSKEFISDSEDDEDLMNPIFFENETYMRWLLDKNNGQLTEDRYIQFAKFAAERMNNGGVVTGDYTSLFGGSIPSIESIRATESSSFAPDKSLISLASHVASEMSIFDVNNNNNNQLSDDDVNSESRNSLGSSQPSNSQNMFQSEVYSRKESTKRSLEASAADESDEDEEAIRLFGKKSRVVLSQGDSDD
chain 2: MDQDFDSLLLGFNDSDSVQKDPTVPNGLDGSVVDPTIADPTAITARKRRPQVKLTAEKLLSDKGLPYVLKNAHKRIRISSKKNSYDNLSNIIQFYQLWAHELFPKAKFKDFMKICQTVGKTDPVLREYRVSLFRDEMGMSFDVGTRETGQDLERQSPMVEEHVTSAEERPIVADSFAQDKRNVNNVDYDNDEDDDIYHLSYRNRRGRVLDERGNNETVLNNVVPPKEDLDALLKTFRVQGPVGLEENEKKLLLGWLDAHRKMEKGSMTEEDVQLIQSLEEWEMNDIEGQHTHYDLLPGGDEFGVDQDELDAMKEMGF
notes: Tof1, S. cerevisiae; Csm3, S. cerevisiae; source: S. cerevisiae strain yAE48, expressed and purified as described previously
Turning to B4, the binding result in assay [2] is listed as “binds”.
